Measurements: PMC9482650, “Quantitative fragmentomics allow affinity mapping of interactomes” (Nature Communications, 2022)

How the values were obtained:
Test in all cases: holdup assay
Set-up in all cases: key: below the threshold = too weak to quantify, mostly under pKd 3.1 to 4
CASK, O14936 = target: CASK, O14936
DFNB31_1, Q9P202 = target: T1, DFNB31_1, Q9P202
T1 sequence (Q9P202 135-233, limits assumed, looked up): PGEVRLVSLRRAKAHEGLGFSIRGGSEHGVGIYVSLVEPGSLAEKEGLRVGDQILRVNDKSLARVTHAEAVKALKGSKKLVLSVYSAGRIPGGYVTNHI

DLG3_2, Q92796 = target: T2, DLG3_2, Q92796
T2 sequence (Q92796 221-321, limits assumed, looked up): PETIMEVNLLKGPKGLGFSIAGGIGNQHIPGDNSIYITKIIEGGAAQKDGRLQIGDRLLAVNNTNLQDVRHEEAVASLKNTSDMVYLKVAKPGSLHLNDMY

DLG4_3, P78352 = target: DLG4_3, P78352
Chain of DLG4_3, P78352 (P78352 306-403): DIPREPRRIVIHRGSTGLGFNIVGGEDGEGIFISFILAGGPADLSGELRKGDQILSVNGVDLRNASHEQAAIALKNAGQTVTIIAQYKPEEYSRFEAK

DLG5_1, Q8TDM6 = target: DLG5_1, Q8TDM6
Chain of DLG5_1, Q8TDM6 (Q8TDM6 617-713): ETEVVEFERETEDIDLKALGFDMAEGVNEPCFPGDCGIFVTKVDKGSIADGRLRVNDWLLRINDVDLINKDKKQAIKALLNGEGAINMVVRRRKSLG

FRMPD2_2, Q68DX3 = target: FRMPD2_2, Q68DX3
Chain of FRMPD2_2, Q68DX3 (Q68DX3 944-1038): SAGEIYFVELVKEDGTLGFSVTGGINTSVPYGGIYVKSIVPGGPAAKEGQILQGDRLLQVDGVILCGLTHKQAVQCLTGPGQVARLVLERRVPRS

GOPC, Q9HD26 = target: GOPC, Q9HD26
GORASP2, Q9H8Y8 = target: GORASP2, Q9H8Y8
GRIP2_5, Q9C0E4 = target: GRIP2_5, Q9C0E4
Chain of GRIP2_5, Q9C0E4 (Q9C0E4 544-642): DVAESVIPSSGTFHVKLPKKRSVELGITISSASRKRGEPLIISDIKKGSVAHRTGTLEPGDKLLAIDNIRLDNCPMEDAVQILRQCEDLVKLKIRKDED

HTRA4, P83105 = target: T3, HTRA4, P83105
T3 sequence (P83105 378-476, limits assumed, looked up): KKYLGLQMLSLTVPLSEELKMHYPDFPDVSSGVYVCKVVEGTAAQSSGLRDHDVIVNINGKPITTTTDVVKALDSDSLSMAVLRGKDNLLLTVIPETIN

IL16_1, Q14005 = target: IL16_1, Q14005
Chain of IL16_1, Q14005 (Q14005 210-306): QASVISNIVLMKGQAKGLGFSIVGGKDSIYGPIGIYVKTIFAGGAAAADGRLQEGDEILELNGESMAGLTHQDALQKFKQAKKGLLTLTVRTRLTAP

IL16_4, Q14005 = target: IL16_4, Q14005
Chain of IL16_4, Q14005 (Q14005 1229-1329): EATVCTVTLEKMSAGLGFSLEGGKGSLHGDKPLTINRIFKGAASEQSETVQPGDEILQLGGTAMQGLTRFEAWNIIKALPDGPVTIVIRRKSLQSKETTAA

Inadl_8, Q8NI35 = target: Inadl_8, Q8NI35
Chain of Inadl_8, Q8NI35 (Q8NI35 1425-1530): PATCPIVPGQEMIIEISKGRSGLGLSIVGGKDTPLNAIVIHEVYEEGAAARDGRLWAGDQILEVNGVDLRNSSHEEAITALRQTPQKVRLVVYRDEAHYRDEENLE

LIMK2, P53671 = target: LIMK2, P53671
Chain of LIMK2, P53671 (P53671 143-248): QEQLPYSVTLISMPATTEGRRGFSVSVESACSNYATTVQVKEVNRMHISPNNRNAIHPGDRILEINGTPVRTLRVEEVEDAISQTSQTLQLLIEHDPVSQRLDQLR

MPDZ_10, O75970 = target: T4, MPDZ_10, O75970
T4 sequence (O75970 1624-1722, limits assumed, looked up): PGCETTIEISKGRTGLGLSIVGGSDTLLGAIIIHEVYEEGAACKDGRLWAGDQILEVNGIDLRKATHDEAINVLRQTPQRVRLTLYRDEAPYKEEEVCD

NHERF3_1, Q5T2W1 = target: T5, NHERF3_1, Q5T2W1
T5 sequence (Q5T2W1 4-100, limits assumed, looked up): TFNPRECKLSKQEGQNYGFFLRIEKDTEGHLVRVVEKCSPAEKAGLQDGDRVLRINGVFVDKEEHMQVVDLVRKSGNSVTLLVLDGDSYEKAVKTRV

NOS1, P29475 = target: NOS1, P29475
Chain of NOS1, P29475 (P29475 9-101): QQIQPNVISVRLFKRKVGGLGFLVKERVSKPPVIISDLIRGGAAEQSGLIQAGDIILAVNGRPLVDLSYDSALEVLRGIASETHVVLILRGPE

PARD3_3, Q8TEW0 = target: PARD3_3, Q8TEW0
Chain of PARD3_3, Q8TEW0 (Q8TEW0 582-685): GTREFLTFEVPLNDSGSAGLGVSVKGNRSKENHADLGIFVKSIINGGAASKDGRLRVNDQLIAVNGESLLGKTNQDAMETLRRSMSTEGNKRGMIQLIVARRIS

RAPGEF6, Q8TEU7 = target: T6, RAPGEF6, Q8TEU7
T6 sequence (Q8TEU7 525-625, limits assumed, looked up): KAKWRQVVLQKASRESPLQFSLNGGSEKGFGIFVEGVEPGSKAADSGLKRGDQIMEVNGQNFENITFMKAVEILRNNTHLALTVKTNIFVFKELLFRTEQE

SCRIB_1, Q14160 = target: SCRIB_1, Q14160
Chain of SCRIB_1, Q14160 (Q14160 718-814): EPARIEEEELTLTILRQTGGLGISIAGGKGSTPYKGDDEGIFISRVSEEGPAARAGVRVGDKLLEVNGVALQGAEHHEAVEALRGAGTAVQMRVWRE

SNTA1, Q13424 = target: T7, SNTA1, Q13424
T7 sequence (Q13424 82-180, limits assumed, looked up): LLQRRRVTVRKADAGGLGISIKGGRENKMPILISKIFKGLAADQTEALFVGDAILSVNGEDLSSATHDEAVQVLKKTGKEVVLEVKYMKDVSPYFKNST

SNTG1, Q9NSN8 = target: T8, SNTG1, Q9NSN8
T8 sequence (Q9NSN8 52-150, limits assumed, looked up): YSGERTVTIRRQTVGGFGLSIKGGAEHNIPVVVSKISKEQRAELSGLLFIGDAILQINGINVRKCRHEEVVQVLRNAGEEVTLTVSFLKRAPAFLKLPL

SNTG2, Q9NY99 = target: T9, SNTG2, Q9NY99
T9 sequence (Q9NY99 68-166, limits assumed, looked up): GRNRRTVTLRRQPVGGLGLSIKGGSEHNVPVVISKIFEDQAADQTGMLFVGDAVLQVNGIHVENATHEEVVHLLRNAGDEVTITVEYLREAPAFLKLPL

TIAM2, Q8IVF5 = target: T10, TIAM2, Q8IVF5
T10 sequence (Q8IVF5 885-986, limits assumed, looked up): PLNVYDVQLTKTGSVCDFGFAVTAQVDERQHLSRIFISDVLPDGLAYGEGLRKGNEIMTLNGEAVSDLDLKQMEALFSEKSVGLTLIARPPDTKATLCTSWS

LIN7B, Q9HAP6 = target: T11, LIN7B, Q9HAP6
T11 sequence (Q9HAP6 88-185, limits assumed, looked up): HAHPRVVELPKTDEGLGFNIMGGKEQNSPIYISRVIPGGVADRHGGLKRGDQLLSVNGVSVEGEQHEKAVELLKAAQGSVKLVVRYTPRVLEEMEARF

PDLIM1, O00151 = target: PDLIM1, O00151
Chain of PDLIM1, O00151 (O00151 1-87): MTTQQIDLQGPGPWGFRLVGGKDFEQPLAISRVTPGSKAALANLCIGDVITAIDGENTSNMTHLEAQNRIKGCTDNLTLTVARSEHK

[1] = plain residues with an end cap or a label only (N-terminal biotin on a linker: ado-ado)
[2] = plain residues with an end cap or a label only (N-terminal biotin on a linker: (peg)3)

Chain of CASK, O14936 (O14936 487-570): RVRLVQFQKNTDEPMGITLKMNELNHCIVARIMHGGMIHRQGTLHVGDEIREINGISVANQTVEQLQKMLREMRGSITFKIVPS

With YLEPVLSSEL [ATP2A2, P16615;P16615-3] the pKd (CASK, O14936; [1]) was “below the threshold”, the pKd (DFNB31_1, Q9P202; [1]) was “below the threshold” and the pKd (DLG3_2, Q92796; [1]) was 4.18. For the same binder, the pKd (DLG4_3, P78352; [1]) was “below the threshold”, the pKd (DLG5_1, Q8TDM6; [1]) was “below the threshold” and the pKd (FRMPD2_2, Q68DX3; [1]) was “below the threshold”. For the same binder, the pKd (GOPC, Q9HD26; [1]) was “below the threshold”, the pKd (GORASP2, Q9H8Y8; [1]) was “below the threshold” and the pKd (GRIP2_5, Q9C0E4; [1]) was “below the threshold”. For the same binder, the pKd (HTRA4, P83105; [1]) was “below the threshold”, the pKd (IL16_1, Q14005; [1]) was “below the threshold” and the pKd (IL16_4, Q14005; [1]) was “below the threshold”. The pKd (Inadl_8, Q8NI35; [1]) was “below the threshold”, the pKd (LIMK2, P53671; [1]) was “below the threshold” and the pKd (MPDZ_10, O75970; [1]) was “below the threshold”. For the same binder, the pKd (NHERF3_1, Q5T2W1; [1]) was 5.47, the pKd (NOS1, P29475; [1]) was “below the threshold” and the pKd (PARD3_3, Q8TEW0; [1]) was “below the threshold”. For the same binder, the pKd (RAPGEF6, Q8TEU7; [1]) was “below the threshold”, the pKd (SCRIB_1, Q14160; [1]) was 4.38 and the pKd (SNTA1, Q13424; [1]) was “below the threshold”. The pKd (SNTG1, Q9NSN8; [1]) was “below the threshold”, the pKd (SNTG2, Q9NY99; [1]) was “below the threshold” and the pKd (TIAM2, Q8IVF5; [1]) was 3.98.

With NLNSSEGVPDLLV [SARS-CoV-E, P59637] the pKd (CASK, O14936; [2]) was “below the threshold”, the pKd (DFNB31_1, Q9P202; [2]) was “below the threshold” and the pKd (DLG3_2, Q92796; [2]) was “below the threshold”. For the same binder, the pKd (DLG4_3, P78352; [2]) was “below the threshold”, the pKd (DLG5_1, Q8TDM6; [2]) was “below the threshold” and the pKd (FRMPD2_2, Q68DX3; [2]) was “below the threshold”. For the same binder, the pKd (GOPC, Q9HD26; [2]) was “below the threshold”, the pKd (GORASP2, Q9H8Y8; [2]) was “below the threshold” and the pKd (GRIP2_5, Q9C0E4; [2]) was “below the threshold”. The pKd (HTRA4, P83105; [2]) was “below the threshold”, the pKd (IL16_1, Q14005; [2]) was “below the threshold” and the pKd (IL16_4, Q14005; [2]) was “below the threshold”. The pKd (Inadl_8, Q8NI35; [2]) was 3.96, the pKd (LIMK2, P53671; [2]) was “below the threshold” and the pKd (LIN7B, Q9HAP6; [2]) was “below the threshold”. The pKd (MPDZ_10, O75970; [2]) was “below the threshold”, the pKd (NHERF3_1, Q5T2W1; [2]) was “below the threshold” and the pKd (NOS1, P29475; [2]) was “below the threshold”. The pKd (PARD3_3, Q8TEW0; [2]) was 4.27, the pKd (PDLIM1, O00151; [2]) was “below the threshold” and the pKd (RAPGEF6, Q8TEU7; [2]) was “below the threshold”. For the same binder, the pKd (SCRIB_1, Q14160; [2]) was “below the threshold”, the pKd (SNTA1, Q13424; [2]) was “below the threshold” and the pKd (SNTG1, Q9NSN8; [2]) was “below the threshold”. For the same binder, the pKd (SNTG2, Q9NY99; [2]) was “below the threshold” and the pKd (TIAM2, Q8IVF5; [2]) was “below the threshold”.

In the case of LPAHHNATRL [SLC34A1, Q06495;Q06495-1], the pKd (CASK, O14936; [1]) is reported as “below the threshold”, the pKd (DLG3_2, Q92796; [1]) is reported as “below the threshold” and the pKd (DLG4_3, P78352; [1]) is reported as “below the threshold”. The pKd (DLG5_1, Q8TDM6; [1]) was “below the threshold”, the pKd (FRMPD2_2, Q68DX3; [1]) was “below the threshold” and the pKd (GOPC, Q9HD26; [1]) was 4.53. For the same binder, the pKd (GORASP2, Q9H8Y8; [1]) was “below the threshold”, the pKd (GRIP2_5, Q9C0E4; [1]) was “below the threshold” and the pKd (HTRA4, P83105; [1]) was 3.96. The pKd (IL16_1, Q14005; [1]) was “below the threshold”, the pKd (IL16_4, Q14005; [1]) was “below the threshold” and the pKd (LIMK2, P53671; [1]) was “below the threshold”. The pKd (LIN7B, Q9HAP6; [1]) was “below the threshold”, the pKd (MPDZ_10, O75970; [1]) was “below the threshold” and the pKd (NHERF3_1, Q5T2W1; [1]) was 5.24. For the same binder, the pKd (NOS1, P29475; [1]) was 4.09, the pKd (PARD3_3, Q8TEW0; [1]) was “below the threshold” and the pKd (PDLIM1, O00151; [1]) was “below the threshold”. The pKd (RAPGEF6, Q8TEU7; [1]) was “below the threshold”, the pKd (SNTG1, Q9NSN8; [1]) was “below the threshold” and the pKd (SNTG2, Q9NY99; [1]) was 4.15. The pKd (TIAM2, Q8IVF5; [1]) was “below the threshold”.
